Experimental data from patent publication US20020058637.

Legend:
[1] = target: tau-protein extracted from bovine brain followed by purification (not phosphorylated by TPK-I) (UniProt P29172)
[2] = system: phosphorylated peptide p-K2
[3] = system: Peptide K2

tau-protein extracted from bovine brain followed by purification (not phosphorylated by TPK-I), sequence (P29172 2-448): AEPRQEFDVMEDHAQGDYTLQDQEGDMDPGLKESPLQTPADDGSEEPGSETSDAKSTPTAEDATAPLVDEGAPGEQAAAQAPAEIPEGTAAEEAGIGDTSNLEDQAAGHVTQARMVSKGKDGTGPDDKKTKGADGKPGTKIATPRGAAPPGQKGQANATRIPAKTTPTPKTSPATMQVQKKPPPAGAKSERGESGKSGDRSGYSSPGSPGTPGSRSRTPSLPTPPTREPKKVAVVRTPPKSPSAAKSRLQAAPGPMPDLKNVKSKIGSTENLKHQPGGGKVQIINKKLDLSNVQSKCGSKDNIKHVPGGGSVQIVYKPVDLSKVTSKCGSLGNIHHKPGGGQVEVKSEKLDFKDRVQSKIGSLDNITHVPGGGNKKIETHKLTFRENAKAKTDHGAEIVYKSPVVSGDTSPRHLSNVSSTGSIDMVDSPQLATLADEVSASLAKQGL

In the case of “recombinant human TPK-I expressed in Escherichia coli BL21(DE3) from pET3C/TPKI (partially purified)”, the “phosphoric acid incorporated into tau-protein (phosphorylating method I)” value [1] is reported as 1.2 moles of phosphoric acid was incorporated into one molecule of tau-protein, the phosphorylation of peptide [2] is reported as “the phosphorylation of p-Ka proceeded” and the phosphorylation of peptide [3] is reported as “that of K2 hardly proceeded”.
In the case of “recombinant human-originated tau-protein kinase I expressed in Sf9 insect cells (partially purified)”, the “amount of phosphoric acid incorporated in tau-protein (phosphorylating method I, 32P)” value [1] is reported as “incorporation of tau-protein into phosphoric acid was confirmed”, the “phosphorylation of peptide (phosphorylating method I)” value [2] is reported as “the progress of phosphorylation of p-K2 was clearly noted” and the “initial speed of phosphorylation of peptide (phosphorylating method I)” value [3] is reported as “phosphorylation of K2 was slow and its initial speed was about one-tenth of that of p-K2”.
In the case of “tau-protein kinase II (TPK-II) purified from bovine brain microtubule”, the “phosphorylation of peptide (phosphorylating method II)” value [3] is reported as “phosphorylated peptide (hereinafter, abbreviated as "p-K2") was obtained”.
